Assay results reported in patent publication US20080176247A1 (INDUSTRIAL TECHNOLOGY RESEARCH INSTITUTE, published 2008).
Blank lines part the entries; values can stand above or below the binder they belong to.

Target: T1, purified recombinant extracellular domain of EGF receptor (EGFR-ECD; Research Diagnostics, Inc.) (UniProt P00533 25-645, limits assumed)
T1 construct: extracellular domain; Bought protein
Test: SPR (BIAcore X), EGFR-ECD immobilized on C1 chip, 1:1 Langmuir fit
Procedure: Each antibody was injected at indicated concentrations and flowed over a surface chip with immobilized EGFR extracellular domain at a flow rate of 10 μl/min.
The surface was regenerated by injection of 5 μl of 10 mM glycine-HCl, pH 3.5. Sensorgrams were obtained at each concentration and were evaluated using the program, BIA Evaluation 3.2. Binding data were titled with a 1:1 Langmuir binding model to calculate the equilibrium dissociation constant, KD, which was defined as the ratio of dissociation rate (koff)/association rate (kₒₙ).

Kd: 4960 nM
koff: 0.0741 s⁻¹
kon: 15000 M⁻¹ s⁻¹
B1: erb_scFv (scFv, not shown: small tags and cut ends)
scFv: MAEVQLLESGGGLVQPGGSLRLSCAASGFTFSSYAMSWVRQAPGKGLEWVSDIGASGSATSYADSVKGRFTISRDNSKNTLYLQMNSLRAEDTAVYYCAKSTTTFDYWGQGTLVTVSSGGGGSGGGGSGGGGSTDIQMTQSPSSLSASVGDRVTITCRASQSISSYLNWYQQKPGKAPKLLIYDASALQSGVPSRFSGSGSGTDFTLTISSLQPEDFATYYCQQYADYPTTFGQGTKVEIKR
notes: Made in NS0 cells for the SPR work

Kd: 104 nM
koff: 0.00944 s⁻¹
kon: 90900 M⁻¹ s⁻¹
B2: erb_scFv-Fc (Fc fusion)
chain: B1 scFv
notes: not shown: Fc region
